# Results taken from patent US20130330359A1 (AbbVie / Abbott, published 2013).
# B1: 1A-2258-107 (antibody, V domains shown)
# VH: EVQLVESGGGLVKPGGSLKLSCAASGFTFSDYFMFWVRQTPEKRLEWVATISDGGSYTYYSDSVKGRFTISRDNAKNNLFLQMSSLKSEDTAMYYCARDKYGDYDAMDYWGQGTSVTVSS
# VL: DVVLTQSPASLAVSLGQRATISCKASQSVDYDSDSYMNWYQQKPGQPPKLLIYAASNLESGIPARFSGGGSGTDFTLNIHPVEEEDAATYYCQQSNEDPPTFGGGTKLEIKR
# B2: 1A-2151-163 (antibody, V domains shown)
# VH: EVQLQQSGPELLKPGASVKISCKASGYSFTDNTIHWVKQSQRKSLEWIGGISPRYGDIRYNVQFKDKATLTVDKSSSTAYMELRSLTSEDSAVYYCTRWDDGYYEDYAMDYWGQGTSVTVSS
# VL: DILLTQSPAILSVSPGERVSFSCRASQSIGTSLHWYQQRRNGSPRLLIKYASESISGIPSRFSGSGSGTDFTLSINTVESEDIADYYCQQSNSWPYTFGGGTKLEIKR
# B3: anti-RGMc 1A-2493-121 monoclonal antibody (antibody, V domains shown)
# VH: DVQLQASGPDLVKPSQSLSLTCTVTGYSITSGYSWHWIRQFPGNKLEWMAYIHYTGDSNYNPSLKSRISITRDTSKNQFFLQLTSVTTEDTATYYCALFGLSGYWGQGTLVTVSA
# VL: DVLMTQTPLSLPVSLGDQASISCRSSQNIIHSNGNTYLDWYLQKPGQSPKVLIYKVSNRFSGVPDRFSGSGSGTDFILKISRVEAEDLGVYYCLQGSHVPWTFGGGTKLEIKR
# What was measured:
# [1] = molecular target: T1, carrier free RGMa (R&D Systems) (UniProt Q96B86 48-422, limits assumed); assay: EIA on coated carrier-free RGMa (summary of specificity)
# T1 construct: also called RGMa-CF
# T1 sequence (looked up): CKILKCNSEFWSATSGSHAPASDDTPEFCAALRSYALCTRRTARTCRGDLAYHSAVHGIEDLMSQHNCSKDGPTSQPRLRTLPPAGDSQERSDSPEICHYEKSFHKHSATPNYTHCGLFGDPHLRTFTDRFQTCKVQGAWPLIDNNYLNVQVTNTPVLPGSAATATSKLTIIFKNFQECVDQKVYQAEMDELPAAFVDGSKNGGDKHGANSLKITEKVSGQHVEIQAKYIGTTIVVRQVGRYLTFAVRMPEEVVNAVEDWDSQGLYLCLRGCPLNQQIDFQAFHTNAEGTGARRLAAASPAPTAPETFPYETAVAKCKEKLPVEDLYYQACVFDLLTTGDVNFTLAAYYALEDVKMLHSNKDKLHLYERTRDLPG
# Method: (§1) Clones were then tested for cross-reactivity with RGMa and RGMb by EIA. Carrier free RGMa, RGMb, or RGMc (R&D Systems) was coated on the solid phase of micro-titer EIA plates at 0.5 ug/mL. After the antigen had been coated on the solid phase, it was removed and any open binding sites on the plates were blocked using fish gel block solution. The wells were washed with distilled water following this incubation. Cell supernatants and control reagents were added to the blocked plates and allowed to incubate at room temperature for at least one hour. The negative control was a purified mouse mAb from a different antigen system. The positive control for RGMa, RGMb, & RGMc was a goat anti-RGMa, RGMb, or RGMc polyclonal antibody (R&D Systems). Following this incubation, the solutions were removed from the plates and they were washed with distilled water. Donkey anti-Goat IgG-HRPO diluted to approximately 200 ng/mL in block solution was added to the plates with the positive control test samples and goat anti-mouse IgG-HRPO (Jackson Immunoresearch) diluted to approximately 200 ng/mL in block solution was added to the plates with the fusion #1 test samples. All plates were allowed to incubate for 30 minutes at room temperature. The plates were washed with distilled water and o-phenylenediamine substrate was used as the chromogen to generate signal. Plates were read at 492 nm and the results were analyzed.
# [2] = molecular target: T2, carrier free RGMb (R&D Systems) (UniProt Q6NW40 46-413, limits assumed); assay: EIA on coated carrier-free RGMb (summary of specificity)
# T2 construct: also called RGMb-CF
# T2 sequence (looked up): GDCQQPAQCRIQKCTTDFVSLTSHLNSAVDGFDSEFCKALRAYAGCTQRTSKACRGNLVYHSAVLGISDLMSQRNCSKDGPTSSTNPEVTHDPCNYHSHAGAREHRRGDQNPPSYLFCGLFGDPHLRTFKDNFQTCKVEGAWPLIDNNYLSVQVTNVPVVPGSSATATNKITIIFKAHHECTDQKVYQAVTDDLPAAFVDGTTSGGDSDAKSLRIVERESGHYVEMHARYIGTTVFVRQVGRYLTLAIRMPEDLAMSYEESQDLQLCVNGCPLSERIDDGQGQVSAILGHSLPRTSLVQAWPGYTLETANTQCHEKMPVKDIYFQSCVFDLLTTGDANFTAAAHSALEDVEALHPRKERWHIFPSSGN
# Method: as §1
# [3] = molecular target: T3, RGMc antigen: amino acids 33-391 of RGMc followed by human Fc (human, UniProt Q6ZVN8 33-391); assay: chemiluminescence immunoassay: supernatant mAb captured on sheep anti-mouse IgG Fc, RGMc-huFc at 200 ng/mL, acridinium-labeled goat anti-RGMc detection
# T3 construct: also called RGMc-huFc; RGMc-Fc; not shown: human Fc
# T3 sequence: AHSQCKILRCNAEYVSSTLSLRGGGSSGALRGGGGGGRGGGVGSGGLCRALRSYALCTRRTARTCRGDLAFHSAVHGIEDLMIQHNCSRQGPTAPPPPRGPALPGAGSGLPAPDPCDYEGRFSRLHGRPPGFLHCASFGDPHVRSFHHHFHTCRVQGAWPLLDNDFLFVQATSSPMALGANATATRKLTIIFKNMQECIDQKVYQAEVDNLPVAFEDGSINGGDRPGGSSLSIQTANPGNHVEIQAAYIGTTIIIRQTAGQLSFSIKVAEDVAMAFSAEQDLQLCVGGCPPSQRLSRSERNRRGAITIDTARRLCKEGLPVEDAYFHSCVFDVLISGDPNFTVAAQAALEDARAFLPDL
# Method: Cell supernatant samples were analyzed for anti-RGMc antibodies by Chemiluminescence immunoassay (CIA). Sheep anti-mouse IgG Fc (Jackson Immunoresearch, West Grove, Pa.) was coated on 96 well micro-titer CIA plates (NUNC) at 5 ug/mL. After the capture reagent had been coated on the solid phase, it was removed and any open binding sites on the plates were blocked using a Fish gel/PBS (2% v/v) block solution. The wells were washed with distilled water and cell supernatants were added to the blocked plates and allowed to incubate at room temperature for at least one hour. The anti-mouse IgG Fc captures the anti-RGMc mouse antibody from the supernatant. Following the incubation, the supernatants were washed off using distilled water. A mouse/human IgG chimeric antibody (Abbott Laboratories) diluted in fish gel block to 5 ug/ml was added to each well and incubated for approximately 30 minutes at room temperature to block any captured mAbs that are specific for human IgG Fc portion of the immunogen. Following the incubation, the human IgG blocking solution was washed off using distilled water. RGMc-huFc antigen was then added to the plates at 200 ng/mL in fish gel block and incubated for 30 minutes at room temperature. Following this incubation, the antigen was washed from the plates using distilled water. Acridinium labeled goat anti-RGMc polyclonal antibody (R&D Systems, Minneapolis, Minn.) was diluted to 200 ng/ml in fish gel block, then added to the plates and allowed to incubate for 30 minutes at room temperature. The plates were washed with distilled water then processed on the Microbeta Jet instrument (Perkin Elmer, Waltham, Mass.). The Microbeta Jet adds Architect© Pre-Trigger and Trigger solutions (Abbott Laboratories). The plates are then read for flash chemiluminescence in luminescent counts per second (LCPS). […] The positive control (PC) used in this assay was spent medium from unfused splenocytes harvested from mouse #814 that were cultured for 7 to 10 days at 37° C.
# [4] = molecular target: T3, RGMc antigen: amino acids 33-391 of …; assay: direct EIA: RGMc-huFc coated at 1.0 ug/mL; supernatant diluted 1:125; goat anti-mouse IgG Fc-HRPO
# Method: (§2) A mouse:human chimeric antibody or RGMc-huFc was coated on the solid phase of micro-titer EIA plates at 1.0 ug/mL. After the antigen had been coated on the solid phase, it was removed and any open binding sites on the plates were blocked using BSA block solution. The wells were washed with distilled water. Cell supernatants and control reagents were added to the blocked plates and allowed to incubate at room temperature for at least one hour. The negative control was a purified mAb from a different antigen system. The positive control for human IgG was a purified anti-hu IgG mAb developed against another antigen containing human IgG Fc carrier protein. The RGMc positive control is Novus mab 1C12. Following this incubation, the solutions were removed from the plates and they were washed with distilled water. Goat anti-mouse IgG Fc-HRPO (Jackson Immunoresearch) diluted to approximately 200 ng/mL in block solution was added to the plates and allowed to incubate for 30 minutes at room temperature. The plates were washed with distilled water and o-phenylenediamine substrate (Abbott Laboratories) was used as the chromogen to generate signal. Plates were read at 492 nm and the results were analyzed.
# [5] = molecular target: T4, mouse:human chimeric antibody (used as human IgG / human IgG Fc antigen); assay: direct EIA: mouse:human chimeric antibody coated at 1.0 ug/mL; supernatant diluted 1:125; goat anti-mouse IgG Fc-HRPO
# T4 construct: also called Hu IgG; human IgG Fc portion
# Method: as §2
# [6] = molecular target: T5, carrier free RGMc (R&D Systems) (human, UniProt Q6ZVN8 36-400); assay: … two-step sandwich chemiluminescent assay; 1A-2493-121 on microparticles as capture, goat polyclonal AF3720 conjugate as detection
# T5 construct: also called RGMc-CF
# T5 sequence (looked up): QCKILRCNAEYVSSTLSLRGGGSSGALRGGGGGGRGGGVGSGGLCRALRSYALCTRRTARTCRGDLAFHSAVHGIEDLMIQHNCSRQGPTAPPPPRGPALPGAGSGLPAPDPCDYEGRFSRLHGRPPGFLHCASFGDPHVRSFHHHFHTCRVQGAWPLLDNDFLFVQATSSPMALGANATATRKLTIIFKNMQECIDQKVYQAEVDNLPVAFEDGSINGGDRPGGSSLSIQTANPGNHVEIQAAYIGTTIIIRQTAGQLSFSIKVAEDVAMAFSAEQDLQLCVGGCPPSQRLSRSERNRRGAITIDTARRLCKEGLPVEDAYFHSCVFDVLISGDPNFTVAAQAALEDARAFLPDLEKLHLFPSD
# [7] = molecular target: T3, RGMc antigen: amino acids 33-391 of …; assay: … two-step sandwich chemiluminescent assay; 1A-2493-121 on microparticles as capture, goat polyclonal AF3720 CPSP conjugate as detection
# Method: The Architect assay is a two-step assay format, wherein a 30 μl sample is mixed with 50 μl of line diluent. […] At the end of 18 minutes, unbound sample is washed away. 50 μl of R&D System Goat polyclonal AF3720 CPSP conjugate at 800 ng/mL was added to the mixture, vortexed, and incubated for 4 minutes. […] The relative light units are then measured.
Binder,binding result [1],binding result [2],LCPS [3],absorbance at 492 nm [4],absorbance at 492 nm [5],binding result [6],binding result [7]
B1,no binding,no binding,2640 LCPS,–,–,–,–
B2,no binding,no binding,4390 LCPS,1.25,0.07,–,–
B3,–,–,–,–,–,binds,binds
